Laboratory results as given in US20120165265A1, “Calcium Signaling Modulators Involving STIM and ORAI Proteins” (priority 2009, published 2012).

Tests used:
Orai1 [1] = target: T1, Orai1 (Homo sapiens, UniProt Q96D31); assay: Whole-cell patch clamp recording of ICRAC in transfected HEK 293 cells; type: cell-based; design: expressed in transfected cells; host or cells: HEK 293
Description: Electrophysiology. HEK 293 cells were transfected 8-24 h prior to electrophysiology experiments with STIM1- and Orai1-derived constructs in a 1:1 mass ratio using Lipofectamine 2000. […] ICRAC in cells cultured without LaCl3 was similar to that in cells cultured with LaCl3, but most cells without LaCl3 died soon after break-in.
Currents were recorded using standard whole-cell patch clamp techniques (Prakriya and Lewis, 2001). Pipettes of resistance 2-5 MΩ were filled with an internal solution containing (in mM) 150 Cs aspartate, 8 MgCl2, 10 EGTA, and 10 HEPES (pH 7.2 with CsOH). Currents were sampled at 5 kHz and filtered at 2 kHz, and all voltages were corrected for the junction potential of the pipette solution relative to Ringer's in the bath (−13 mV).
Patch-clamp Experiments. Pipette-membrane seals were formed in 2 mM Ca^2+ Ringer's solution. After break-in to the whole-cell configuration, voltage stimuli consisting of a 100-ms step to −100 mV followed by a 100-ms ramp from −100 to +100 mV were delivered every 5 s from the holding potential of +30 mV. After the currents reached a steady level (˜300 s for wild-type STIM1), the external solution was changed via a multibarrel local perfusion pipette to a high-Ca^2+ Ringer's containing (in mM) 130 NaCl, 4.5 KCl, 20 CaCl2, 1 MgCl2, 10 D-glucose, and 5 HEPES (pH 7.4 with NaOH). All data were leak-corrected using the current elicited in 20 mM Ca^2+ Ringer's+10 μM LaCl3 at the end of the each experiment. LaCl3 and 2-APB were added directly to parent solutions on the day of the experiment from 10 mM and 100 mM stocks in H2O and DMSO, respectively.
As a definitive test for CRAC channel activation, we conducted whole-cell patch clamp recordings from HEK 293 cells transiently transfected with myc-Orai1 and either YFP-STIM1 or YFP-CAD. In cells expressing full length YFP-STIM1, ICRAC appeared over several minutes following break-in, consistent with the typical slow activation seen in response to passive store depletion (FIG. 2D). […] In contrast, inward current was present from the moment of break-in in cells expressing YFP-CAD (FIG. 2E). This current was identified as ICRAC based on its dependence on extracellular Ca^2+, inward rectification, sequential enhancement and inhibition by 2-APB, and inhibition by La^3+ (FIG. 2E and FIG. 10 C, D). ICRAC was not observed at break-in in HEK 293 cells transfected with YFP or YFP-CAD in the absence of Orai1 (FIG. 2F), consistent with the low level of endogenous STIM1 and Orai1 in these cells. […] Inactivation was restored by addition of STIM1 residues carboxy-terminal to CAD.

CRAC channels = target: T2, CRAC channels (Homo sapiens, UniProt Q96D31); assay: [Ca2+]i imaging in HEK 293 cells expressing STIM1 fragment and Orai1; type: cell-based; conditions: for effect on CAD-induced sustained elevation of [Ca2+]i: HEK 293 cells expressing Orai1 and CAD
T2 construct: expressed in transfected cells; host or cells: HEK 293
Description: Ca^2+ Imaging. For FIG. 2, cells were loaded at 37° C. in DMEM with 1 μM fura-2/AM for 30 min. Ratiometric Ca2+ imaging was performed at 340 and 380 nm in 2 mM Ca2+ Ringer's solution with a Nikon Eclipse 2000-U inverted microscope equipped with a fluorescent arc lamp, excitation filter wheel, and a Hamamatsu Orca CCD camera. Images were collected using Openlab (Improvision) and analyzed using Igor Pro.
To determine if CAD activates store operated Ca^2+ influx in cells, we measured [Ca^2+]i in HEK 293 cells expressing CAD and Orai1.

CAD [2] = target: T3, CAD (Homo sapiens, UniProt Q13586); assay: Yeast split ubiquitin assay, Orai1 fragments with CAD; type: binding; conditions: NubG-Orai1 fragment with CAD-Cub-LV in yeast
T3 construct: For STIM1 342-448 (CAD); expressed in transfected cells; host or cells: HEK 293T
Description: Split-Ubiquitin Yeast Two Hybrid Assay. Screening was performed according to the manufacturer's instructions (Dualsystems Biotech). Transformed yeast were selected on media lacking Trp and Leu (-TL). Interaction was observed by cell growth on plates lacking Trp, Leu, and His (TLH) in the presence of 3-aminotriazole (3-AT). Protein interactions were also assessed by measuring lacZ activity using the chromogenic substrate X-gal (5-bromo-4-chloro-3-indolyl-β-galactopyranoside).
Split-Ubiquitin Yeast Two Hybrid Assay. To generate fusion proteins with the N-terminal half of ubiquitin (Nub), full-length or fragments of Orai1 were amplified by PCR and cloned into the pDL2-Nubx vector (Dualsystems Biotech). The Nub sequence in the pDL2-Nubx plasmid contains a point mutation (NubG) that abolishes the spontaneous association of Nub to the C-terminal half of ubiquitin (Cub). The CAD was subcloned into the pAMBV4 vector, which contains Cub fused to a chimeric transcription factor consisting of the DNA binding domain from LexA and the VP16 transactivation domain.
(§1) STIM1-CAD BINDS TO THE N- AND C-TERMINI OF ORAI1. To identify regions of Orai1 important for activation by CAD, we characterized the binding of CAD to Orai1 using two approaches. First we expressed fusions of NubG with the N-terminus, the II-III cytoplasmic loop and the C-terminus of Orai1 in yeast together with different CAD-Cub-LV constructs. […] Based on the level of b-gal activity, CAD appears to interact with the Orai1 C-terminus with a higher affinity than with the N-terminus. We next expressed fusions of YFP with the N-terminus, the II-III loop and the C-terminus of Orai1 in HEK 293T cells together with Flag-myc-CAD.
(§2) To explore the interaction between the N-terminus of Orai1 and CAD in more detail we mapped the subregion within the N-terminus of Orai1 that is responsible for CAD binding, using both the split ubiquitin and HEK 293T co-immunoprecipitation assays.

CAD [3] = target: T3, CAD; assay: Co-immunoprecipitation of Orai1 fragments with CAD in HEK 293T cells; type: binding; conditions: YFP-tagged Orai1 fragment with Flag-myc-CAD in HEK 293T cells
Description: (§3) Immunoprecipitation and Immunoblot Analysis. Transfected HEK 293T cells (12-24 h) were washed with PBS and lysed in 50 mM Tris-HCl pH 7.5, 150 mM NaCl, 1% Triton X-100, and protease inhibitors. Lysates were spun at 12,000 rpm for 10 min, and the supernatant was incubated with anti-Flag M2 agarose beads (Sigma), or anti-myc or -HA antibody followed by IgG agarose beads (Pierce). Lysates and immunoprecipitates were subjected to SDS-PAGE, probed with HRP-conjugated secondary antibody and detected by enhanced chemiluminescence (Pierce).
as §1, §2

Orai1 [4] = target: T1, Orai1; assay: Co-immunoprecipitation with Orai1 in HEK 293T cells; type: binding; design: expressed in transfected cells; host or cells: HEK 293; conditions: 150 mM salt, 1% Triton X-100
Description: as §3
CAD Associates with Orai1 in vivo and in vitro. Because cytosolic CAD is a potent activator of Orai1 channels and is not associated with the ER, we hypothesized that CAD binds to Orai1. To test this idea, we first expressed YFP-CAD with or without myc-Orai1 in HEK 293 cells and examined its intracellular localization. […] To provide additional evidence that CAD and Orai1 are part of the same protein complex we expressed Flag-tagged CAD and GFP-tagged Orai1 in HEK 293T cells and immunoprecipitated CAD with anti-Flag antibodies. GFP-myc-Orai1 was detected in the immunoprecipitates from cells co-expressing CAD and Orai1 but not from cells expressing CAD or Orai1 alone (FIG. 3B).
Thus, CAD and Orai1 form a protein complex in mammalian cells.

T3 sequence (Q13586 342-448): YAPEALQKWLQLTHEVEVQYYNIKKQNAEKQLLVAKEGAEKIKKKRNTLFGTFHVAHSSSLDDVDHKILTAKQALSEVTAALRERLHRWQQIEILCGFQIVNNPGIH
T1 sequence (Q96D31 whole entry): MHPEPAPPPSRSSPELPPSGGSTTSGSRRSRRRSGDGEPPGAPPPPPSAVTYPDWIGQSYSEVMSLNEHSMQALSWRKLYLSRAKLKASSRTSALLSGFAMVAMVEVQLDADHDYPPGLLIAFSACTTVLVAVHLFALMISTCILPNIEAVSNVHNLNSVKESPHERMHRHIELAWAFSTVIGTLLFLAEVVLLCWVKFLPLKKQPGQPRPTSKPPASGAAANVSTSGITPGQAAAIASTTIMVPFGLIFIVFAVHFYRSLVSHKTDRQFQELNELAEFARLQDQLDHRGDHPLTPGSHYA
T2 sequence (Q96D31 whole entry, the tested form may be a part): as the sequence (Q96D31 whole entry) above

interaction with CAD (b-gal, growth without histidine) (CAD [2])	co-immunoprecipitation with CAD (CAD [3])	Molecule	other results
–	–	NCCOB(c1ccccc1)c1ccccc1 [2-APB, 2-Aminoethoxydiphenylborate, reference compound]	effect on constitutive CAD-dependent ICRAC (Orai1 [1]; YFP-CAD+myc-Orai1 HEK 293 cell, 50 μM 2-APB, 20 mM Ca2+): increase in CAD-dependent current followed by a slower inhibition; effect on CAD-induced sustained elevation of [Ca2+]i (CRAC channels; 100 μM 2-APB): blocked
–	–	[Cl][La]([Cl])[Cl] [La^3+, LaCl3, reference compound]	effect on CAD-supported current (Orai1 [1]; YFP-CAD+myc-Orai1 cell, 10 μM LaCl3, 20 mM Ca2+o): rapid inhibition of current; effect on CAD-induced sustained elevation of [Ca2+]i (CRAC channels; 10 μM La3+): blocked
strong interaction	interacts	C-terminus of Orai1: Orai1 C-terminal fragment, SEQ ID NO:6 (HFYRSLVSHKTDRQFQELNELAEFARLQDQLDHRGDHPLTPGSHYA; H. sapiens)	–
–	–	CAD (342-440): CAD peptide with the last 8 aa deleted	co-immunoprecipitation with Orai1 (Orai1 [4]): retained the ability to bind to Orai1; [Ca2+]i / CRAC channel activation (CRAC channels; HEK 293 cells coexpressing construct and Orai1, no store depletion): eliminates its ability to activate CRAC channels
lack of interaction	not	II-III loop of Orai1: Orai1 II-III cytoplasmic loop aa 142-177, SEQ ID NO:5	–
weaker interaction	only very weakly	N-terminus of Orai1 (aa 1-91): Orai1 N-terminal fragment aa 1-91, SEQ ID NO:2	co-immunoprecipitation with CAD (CAD [3]; listed as N-terminus): interacts
not	–	Orai148-70: Orai1 fragment aa 48-70 (SAVTYPDWIGQSYSEVMSLNEHS; UniProt Q96D31 48-70, looked up, fragment)	–
interacted strongly	co-immunoprecipitated	Orai148-91: Orai1 N-terminal fragment aa 48-91, SEQ ID NO:3	co-immunoprecipitation with CAD (CAD [3]; listed as Orai1-NT(48-91)): co-immunoprecipitates
interacted strongly	–	Orai168-91: Orai1 fragment aa 68-91	–
–	–	YFP-CT-STIM1: YFP-tagged CT-STIM1 (236-685) [reference compound]	constitutive ICRAC (Orai1 [1]; HEK 293 cells cotransfected with construct and myc-Orai1, from break-in): failed to activate constitutive ICRAC
